Laboratory results reported in patent US20150284450A1, “COMBINATION THERAPIES USING ANTI-PSEUDOMONAS PSL AND PCRV BINDING MOLECULES” (priority 2012, published 2015).

Tests used:
[1] = test system: P. aeruginosa serogroup 011 strain (9882-80.lux); assay: OPK assay with luminescent 9882-80.lux; format: cell-based, Pseudomonas aeruginosa; conditions: FIG. 2B
Method: (§1) This example describes the evaluation of prioritized human IgG1 antibodies to promote OPK of P. aeruginosa. […] OPK assays were performed as described in (DiGiandomenico, A., et al., Infect Immun 72, 7012-7021 (2004)), with modifications. Briefly, assays were performed in 96-well plates using 0.025 ml of each OPK component; P. aeruginosa strains; diluted baby rabbit serum; differentiated HL-60 cells; and monoclonal antibody. In some OPK assays, luminescent P. aeruginosa strains, which were constructed as described (Choi, K. H., et al., Nat Methods 2, 443-448 (2005))., were used. Luminescent OPK assays were performed as described above but with determination of relative luciferase units (RLUs) using a Perkin Elmer ENVISION Multilabel plate reader (Perkin Elmer).
The ability of the WapR-004 and Cam-003 antibodies to mediate OPK activity against another clinically relevant O-antigen serotype strain, 9882-80.lux, was evaluated.

P. aeruginosa 6294 (O6) = assay: Acute pneumonia model in mice, strain 6294; format: in vivo, Pseudomonas aeruginosa; conditions: for Overall Impression, lung histology: BALB/c mice
Method: (§2) Antibodies or PBS were administered 24 hours before infection in each model. P. aeruginosa acute pneumonia, keratitis, and thermal injury infection models were performed as described (DiGiandomenico, A., et al., Proc Natl Acad Sci USA 104, 4624-4629 (2007)), with modifications. In the acute pneumonia model, BALB/c mice (The Jackson Laboratory) were infected with P. aeruginosa strains suspended in a 0.05 ml inoculum. In the thermal injury model, CF-1 mice (Charles River) received a 10% total body surface area burn with a metal brand heated to 92° C. for 10 seconds. Animals were infected subcutaneously with P. aeruginosa strain 6077 at the indicated dose. For organ burden experiments, acute pneumonia was induced in mice followed by harvesting of lungs, spleens, and kidneys 24 hours post-infection for determination of CFU.

[2] = test system: P. aeruginosa PAO1.lux attachment to A549 cells; assay: Cell attachment assay, PAO1.lux on A549 cells; format: cell-based, Pseudomonas aeruginosa; conditions: MOI 10, FIG. 4
Method: Anti-Psl antibodies were added to a confluent monolayer of A549 cells (an adenocarcinoma human alveolar basal epithelial cell line) grown in opaque 96-well plates (Nunc Nunclon Delta). Log-phase luminescent P. aeruginosa PAO1 strain (PAO1.lux) was added at an MOI of 10. After incubation of PAO1.lux with A549 cells at 37° C. for 1 hour, the A549 cells were washed, followed by addition of LB+0.5% glucose. Bacteria were quantified following a brief incubation at 37° C. as performed in the OPK assay described in Example 2. Measurements from wells without A549 cells were used to correct for non-specific binding.

[3] = test system: P. aeruginosa 6077 (O11-cytotoxic); assay: Corneal infection (keratitis) model in mice, strain 6077; format: in vivo, Pseudomonas aeruginosa; conditions: antibody 24 h prior to 6077 (2×10^6 CFU); FIG. 8A-D, F-G
Method: as §2
Cam-003 and WapR-004 efficacy was next evaluated in a P. aeruginosa corneal infection model which emphasizes the pathogens ability to attach and colonize damaged tissue. […] FIG. 8 (H): The activity of anti-Psl and anti-PcrV monoclonal antibodies V2L2 was tested in a P. aeruginosa mouse ocular keratitis model. C3H/HeN mice were injected intraperitoneally (IP) with PBS or a control IgG1 antibody (R347) at 45 mg/kg or WapR-004 (α-Psl) at 5 mg/kg or V2L2 (α-PcrV) at 5 mg/kg, 16 hours prior to infection with 6077 (O11-cytotoxic−1×10^6 CFU) Immediately before infection, mice were anesthetized followed by initiation of three 1 mm scratches on the cornea and superficial stroma of one eye of each mouse using a 27-gauge needle under a dissection microscope, followed by topical application of P. aeruginosa 6077 strain in a 5 μl inoculum. Eyes were photographed at 48 hours post infection followed by corneal grading by visualization of eyes under a dissection microscope. Grading of corneal infection was performed as previously described by Preston et al. (Preston, M J., 1995, Infect. Immun. 63:3497). Briefly, infected eyes were graded 48 h after infection with strain 6077 by an investigator who was unaware of the animal treatments. The following grading scheme was used: grade 0, eye macroscopically identical to an uninfected eye; grade 1, faint opacity partially covering the pupil; grade 2, dense opacity covering the pupil; grade 3, dense opacity covering the entire pupil; grade 4, perforation of the cornea (shrinkage of the eyeball).

[4] = test system: P. aeruginosa serogroup 05 strain (PAO1.lux); assay: Opsonophagocytic killing (OPK) assay with luminescent PAO1.lux, HL-60 cells and baby rabbit serum; format: cell-based, Pseudomonas aeruginosa; conditions: FIG. 2A
Method: as §1

[5] = test system: P. aeruginosa 6077 (O11, cytotoxic); assay: Acute pneumonia model in mice, strain 6077; format: in vivo, Pseudomonas aeruginosa; conditions: WapR-004 5 and 1 mg/kg; 6077 (O11) 8×10^5 or 6×10^5 CFU; FIG. 6E-F
Method: as §2

[6] = test system: P. aeruginosa 6206 (O11-ExoU+); assay: Acute pneumonia model in mice, strain 6206; format: in vivo, Pseudomonas aeruginosa
Method: as §2

[7] = test system: P. aeruginosa 6077 (exoU+); assay: Rabbit red blood cell lysis inhibition assay with strain 6077; format: cell-based, Pseudomonas aeruginosa; conditions: strain 6077; FIG. 12D-E
Method: Percent inhibition of cytotoxicity analysis was analysed for the parental V2L2 mAb, mAb166 (positive control) and R347 (negative control), where the antibodies were administered to cultured broncho-epithelial cell line A549 combined with log-phase P. aeruginosa strain 6077 (exoU+) at a MOI of approximately 10. A549 lysis was assayed by measuring released lactate dehydrogenase (LDH) activity and lysis in the presence of mAbs was compared to wells without mAb to determine percent inhibition. The V2L2 mAb, mAb166 (positive control) and R347 (negative control) were evaluated for their ability to prevent lysis of RBCs, where the antibodies were mixed with log-phase P. aeruginosa 6077 (exoU^+) and washed rabbit red blood cells (RBCs) and incubated for 2 hours at 37°. Intact RBCs were pelleted and the extent of lysis determined by measuring the OD405 of the cell-free supernatant. Lysis in the presence of anti-PcrV mAbs was compared to wells without mAb to determine percent inhibition.

rPcrV protein = assay: Binding kinetics on Bio-Rad ProteOn XPR36; parameters: species or system Pseudomonas aeruginosa; conditions: antibody captured, rPcrV injected; FIG. 12G-H
Method: Binding kinetics of V2L2-GL and V2L2-MD were measured using a Bio-Rad ProteOn™ XPR36 instrument. Antibodies were captured on a GLC bisensor chip using anti-human IgG reagents. rPcrV protein was injected at multiple concentrations and the dissociation phase followed for 600 seconds. Data was captured and analyzed using ProteOn Manager software. […] The clone V2L2-MD had increased Kd by 2-3 folds over V2L2-GL.

[8] = 1.33×10^7 CFU 6294, 0.2 mg/kg (combination 0.1 mg/kg ea), Table 6A
[9] = 1.7×10^7 CFU 6294, 0.2 mg/kg (combination 0.1 mg/kg ea), Table 6B
[10] = 5.25×10^5 cfu 6206, single antibody: R347 2.1 mg/kg, V2L2 0.1 mg/kg, WapR-004 0.5 mg/kg, Table 5
[11] = 9.25×10^5 CFU 6206, 0.2 mg/kg (combination 0.1 mg/kg ea), Table 7

B1: WapR-004: anti-Psl human IgG1 monoclonal antibody; VH SEQ ID NO: 11, VL SEQ ID NO: 12 (antibody, V domains shown)
VH: EVQLLESGPGLVKPSETLSLTCNVAGGSISPYYWTWIRQPPGKGLELIGYIHSSGYTDYNPSLKSRVTISGDTSKKQFSLHVSSVTAADTAVYFCARGDWDLLHALDIWGQGTLVTVSS
VL: EIVLTQSPSSLSTSVGDRVTITCRASQSIRSHLNWYQQKPGKAPKLLIYGASNLQSGVPSRFSGSGSGTDFTLTISSLQPEDFATYYCQQSYSFPLTFGGGTKLEIK
modifications: WapR-004 VH; WapR-004 & WarR-004RAD VL
- OPK activity against strain 9882-80 (O11) [1]: extends to strain 9882-80 (O11)
- Hemorrhage, extent in words (P. aeruginosa 6294 (O6); [8]): Extensive
- Inflammatory Infiltrate (P. aeruginosa 6294 (O6); [8]): PMN 3+
- Involved Lung Surface Area (P. aeruginosa 6294 (O6); [8]): 57%
- Bacteria (P. aeruginosa 6294 (O6); [9]): Neg-2+
- Inflammatory Infiltrate (P. aeruginosa 6294 (O6); [9]): PMN 2+
- Involved Lung Surface Area (P. aeruginosa 6294 (O6); 1.7×10^7 CFU 6294, 0.2 mg/kg, Table 6B): 40%
- organ burden after induction of acute pneumonia (P. aeruginosa 6294 (O6); 6294 (~1×10^7 CFU), 15, 5, 1 mg/kg, FIG. 7E): reduced organ burden
- Overall Impression, lung histology (P. aeruginosa 6294 (O6); [8]): Broncho interstitial pneumonia
- Overall Impression, lung histology (P. aeruginosa 6294 (O6); [9]): Broncho interstitial pneumonia
- reduction of P. aeruginosa cell attachment to A549 cells compared to the negative control (up to) [2]: ~80%
- bacterial counts in total eye homogenates compared to negative control [3]: reduced bacterial counts in total eye homogenates
- corneal pathology compared to negative control-treated animals [3]: significantly less pathology
- OPK activity, in words [4]: superior OPK activity
- survival [5]: significant concentration-dependent survival
- organ burden / tissue clearance (lung, spleen, kidney CFU) ([6]; 5.25×10^5 cfu 6206, V2L2 0.1 mg/kg, W4-RAD 0.5 mg/kg, combination, 24 h post infection, FIG. 15): effective in lowering organ burden
- Inflammatory Infiltrate [6, 10]: PMN 2-3+
- Involved Lung Surface Area [6, 10]: 50%
- Overall Impression, lung histology [6, 10]: Broncho interstitial pneumonia
- Bacteria [6, 11]: Neg-1+
- Inflammatory Infiltrate [6, 11]: PMN 1-2+
- Involved Lung Surface Area [6, 11]: 36%
- organ burden after induction of acute pneumonia ([6]; 6206 (~1×10^6 CFU), 15, 5, 1 mg/kg, FIG. 7F): reduced organ burden
- Overall Impression, lung histology ([6]; BALB/c mice, 9.25×10^5 CFU 6206, 0.2 mg/kg (combination 0.1 mg/kg ea), Table 7): Broncho interstitial pneumonia

B2: V2L2-MD: optimized V2L2-GL mAb; germlined lead optimized anti-PcrV antibody used in Bs4-GLO (antibody, V domains shown)
VH: EMQLLESGGGLVQPGGSLRLSCAASGFTFSSYAMNWVRQAPGEGLEWVSAITISGITAYYTDSVKGRFTISRDNSKNTLYLQMNSLRAGDTAVYYCAKEEFLPGTHYYYGMDVWGQGTTVTVSS
VL: AIQMTQSPSSLSASVGDRVTITCRASQGIRNDLGWYQQKPGKAPKLVIYSASTLQSGVPSRFSGSGSGTDFTLSISSLQPDDFATYYCLQDYNYPWTFGQGTKVEIK
modifications: V2L2-MD VH; V2L2-MD and V2L2-GL VL
- prevention of RBC lysis [7]: demonstrated prevention of RBC lysis
- Kd increased over V2L2-GL (rPcrV protein): 2-3 folds
